According to the supplement of paper PMC9170038:

What was measured:
MS2 coat protein = test: apparent KD of MS2 coat protein; higher = weaker reporter binding; settings: Eterna round: R107
Experimental: (§1)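 RNA-MaP round R107: designed RNA switches with theophylline, tryptophan, arginine or FMN aptamers are transcribed on-chip within common flanks. They are titrated with SNAP-549-labelled MS2 coat protein in RNA-MaP buffer (100 mM Tris pH 7.5, 80 mM KCl, 4 mM MgCl2), without ligand or with the indicated ligand. Median apparent KD per design.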

[1] = tested on: K4 kissing-loop RNA reporter; test: apparent KD of K4 kissing-loop reporter; higher = weaker reporter binding; settings: Eterna round: R107;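 further: bound reporter read as fluorescence of individual clusters on recovered sequencing chips by microscopy, with normalized cluster intensities fitted with a binding model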
Experimental: as §1, with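 “a labelled K4 kissing-loop RNA reporter” for “SNAP-549-labelled MS2 coat protein”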

[2] = input ligand: theophylline 20 uM
[3] = input ligand: tryptophan 2.4 mM
[4] = input ligand: theophylline 2 mM

Sequence	apparent KD of MS2 coat protein (MS2 coat protein; input ligand: arginine 13.2 mM) [nM]	apparent KD of MS2 coat protein (MS2 coat protein; [2]) [nM]	apparent KD of MS2 coat protein (MS2 coat protein; [3]) [nM]	apparent KD of MS2 coat protein (MS2 coat protein; input ligand: none) [nM]	apparent KD of MS2 coat protein (MS2 coat protein; [4]) [nM]	apparent KD of K4 kissing-loop reporter ([1]; input ligand: FMN 200 uM) [nM]	apparent KD of K4 kissing-loop reporter ([1]; input ligand: arginine 13.2 mM) [nM]	apparent KD of K4 kissing-loop reporter ([1]; input ligand: none) [nM]	apparent KD of K4 kissing-loop reporter [1, 2] [nM]	apparent KD of K4 kissing-loop reporter [1, 3] [nM]
UCAAGUGAACCAUGGAAACAUUCAAUAGAUACCAGCAUUAAAACCUGCCCUUGGCAGCUAUGAACAUGAGGAUCACCCAUGUGAA [theeternabot_exclusion_MS2_Theo_A_21]	17.3	23.3	19.2	–	–	–	–	–	–	–
AAACUGGGUGUAAAAUAAAUAAUCACUGAUACCAGACUAUUUUAUGUCCCUUGGCAGCAGAAACAUGAGGAUCACCCAUGUAAUA [JR_Nu_ExcTheophyA_Sub025]	21.2	25.3	26.7	–	–	–	–	–	–	–
UAUACAUGAGGAUCACCCAUGUGCCAUGAUACCAGACAUGAAAAUGUCCCUUGGCAGCAUGGGAGAUGUAUAGCGGGAAACCCGA [Turany]	22.4	198	42.6	38.9	677	–	–	–	–	–
GUACAUGAGGAUCACCCAUGUAUAGUUGAAGGAGCGACCGGAGGGUCAGGUAGGUCGCAGCACAUGGCGUAAACCCGUGUAUGCC [#1 Exclusion - Arginine A Attempt #24 (Inspired by Pi)]	18.5	32.7	23	21.7	31.9	–	–	–	–	–
GGUCUCUGGAGCGAUACCAGCUUGAGUGUACUGGCCAGGUACAUGAGGAUCACCCAUGUAAGCCCUUGGCAGCGCUCCAGAGACC [#1 Exclusion - Theophylline B Attempt #15 (HarryS)]	9.19	14	11	9.21	44.7	–	–	–	–	–
ACGACGCAUAGUGAUACCAGUAGAACAUGAGGAUCACCCAUGUCUGUGGCGCUCCGCCUCUGCCCUUGGCAGCACUAUGCGUCAG [SSTheo B #10]	11.9	17	11.4	–	–	–	–	–	–	–
UGCACUCAUGCGGCCGCCACUGUCGGCCGCCACUAAACAUGAGGAUCACCCAUGUAGGACCGGGACAGGACCGGGCAUGGGUGCU [TryBS - #DoubleAptamer 2]	12.9	20.7	9.97	15.7	13.8	–	–	–	–	–
UUAACGAGCUGAAGGAGCGCUCCUCAACAACAUGAGGAUCACCCAUGUACACAUAAUAGGGAGCAGGUAGGUCGCAGCAGGAUGG [ss-argB-?]	17.4	23.4	15	15.3	17	–	–	–	–	–
UUUACAUGAGGAUCACCCAUGUGCCAUGAUACCAGACAUGAAAAUGUCCCUUGGCAGCAUGAGUGAUUCAUCCGAAAGGAUGUUU [Jehnice]	114	146	103	–	–	–	–	–	–	–
AGGUGGGUCUGAAGGAGCGCGAUAACAUGAGGAUCACCCAUGUUAAAUGGUACAUGAUACUCGCAGGUAGGUCGCAGUAAAACCA [Same State Arginine B GF 12]	25	73.1	53.1	84.4	93.8	–	–	–	–	–
UUUUAAGGGAUCGGAGCUGGUAGCAGAGAUACCAGAGUAGUAAUGCUCCCUUGGCAGCUCAGUACAUGAGGAUCACCCAUGUUUU [Exclusion Theophylline A GF26]	16.3	21	17.9	17.6	25.3	–	–	–	–	–
UGUUAUGUGGGAAGGAGCGCAUACUUCACAUGAGGAUCACCCAUGUCAAGACGUGAGUCAGUGCAGGUAGGUCGCCUAGUUAAGA [Same State - Arginine B (Freestyle 17)]	36	75.1	45	73.9	78.8	–	–	–	–	–
UGUAACAUGAGGAUCACCCAUGUGAGUGAUACCAGACUAGUAUUAGUCCCUUGGCAGCACGUUGGGCGAGUGUAUAGUCUAUGCG [Same State - Theophylline A (Freestyle 14)]	89.6	113	80.3	–	–	–	–	–	–	–
ACAUGAGGAUCACCCAUGUGCCGAGUUGAUACCAGACCCGCACUAGUCCCUUGGCAGCAACUACGUGUGGGACACCCAUGUUAAG [qaqmullin]	29.1	85.5	47.9	–	–	–	–	–	–	–
CAGUCUCUAGCGGCCGCCACUGUUCUGCUGGUGCUGCUGAACGAACAUGAGGAUCACCCAUGUCUCAGGACCGGGCUUCAGACUC [theeternabot_sameState_MS2_Trp_B_44]	22.4	30.4	–	–	33.3	–	–	–	–	–
ACAUGAGGAUCACCCAUGUUGAACUACCAUCGAGGACCGGUACGGCCGCCACUCGCGUUCUCCUUAGCAUCAAGGUCCGCGAAAC [theeternabot_exclusion_MS2_Trp_A_1]	10.3	15.3	–	–	13.6	–	–	–	–	–
GGUUGAAACUGAAGGAGCGAGAUCACAAGAUUGGGUCUAACAUGAGGAUCACCCAUGUAAUCUCAGGUAGGUCGCAGUGACCAAA [Exclusion Arginine B GF 13]	28	45.1	38.1	38.4	51.7	–	–	–	–	–
CUCCGAGGCUAUACUAUCCGCCUCAGUGAUACCAGAAUACCUAUAUUCCCUUGGCAGCAUCACAUGAGGAUCACCCAUGUGCCAU [SSTheo A #14]	13.4	16.3	12.2	–	–	–	–	–	–	–
AACAUGAGGAUCACCCAUGUCCUCGUGAUUCGAGGACCGGUACGGCCGCCACUCGGUCCUCGCGAGGAGGAGUCAAAGACUCCAA [Omei Trp A SS A v1]	98	229	137	144	204	–	–	–	–	–

Sequence	apparent KD of MS2 coat protein (MS2 coat protein; input ligand: arginine 13.2 mM) [nM]	apparent KD of MS2 coat protein (MS2 coat protein; [2]) [nM]	apparent KD of MS2 coat protein (MS2 coat protein; [3]) [nM]	apparent KD of MS2 coat protein (MS2 coat protein; input ligand: none) [nM]	apparent KD of MS2 coat protein (MS2 coat protein; [4]) [nM]	apparent KD of K4 kissing-loop reporter ([1]; input ligand: FMN 200 uM) [nM]	apparent KD of K4 kissing-loop reporter ([1]; input ligand: arginine 13.2 mM) [nM]	apparent KD of K4 kissing-loop reporter ([1]; input ligand: none) [nM]	apparent KD of K4 kissing-loop reporter [1, 2] [nM]	apparent KD of K4 kissing-loop reporter [1, 3] [nM]
AUAUAUACAUGAGGAUCACCCAUGUUAUUUCGAGGACCGGUACGGCCGCCACUCGAUAGAGUAGAAGUAAAUUUUAAUUCAUGUA [JR_SSTryptoA_Sub008]	13.9	18.7	–	–	16.8	–	–	–	–	–
AAACAUGACAUGGAUACCAGACACAUGAGGAUCACCCAUGUUGAGGAUCACCCAUGUCCCGUCCCUUGGCAGCCAGCAUGAGGAU [Exclusion Theophylline B 2]	8.96	11.6	8.83	–	–	–	–	–	–	–
UGUUUGGUGCGCGAGUGUUGGAUAAUUGAUACCAGUGUAGAAGAGCGCCCUUGGCAGCGAAUCCUAACAUGAGGAUCACCCAUGU [5.W]	37.6	54.7	40.3	–	–	–	–	–	–	–
CUAUGGAAACAUAGUGAGCGGGAAACCGAUACCAGUAUGGAAACAUACCCUUGGCAGCGGAAUGCUCAAACGGAGUGAUGUUCCG [Theophylline A K4 22]	–	–	–	–	–	265	216	270	235	240
CCGUGGAGUGAUGUUCCACGUAAUACGGAUACCAGCUUUGCCAAAGGCCCUUGGCAGCCGCACGUUGCAGUGAUGUUGUGGCGCG [Same State Theophylline A G8]	–	–	–	–	–	191	143	183	162	150
GUGCGUAAGUGAUGUUUACGUCAGCUCCGCAAGGAUAUCCUGAUUAGGAGAAGGUGCGGGAACUAAAGACGCUCGUUCUAGCAGG [theeternabot_exclusion_KL_FMN_A_33]	–	–	–	–	–	146	182	205	168	162
GCGAAAAGCAAAACGAGUGAUGUUCGAAAACGAGGACCGGUACGGCCGCCACUCGAAAACGUCUGCGUGGGAAACUAUGUAGAUG [SS Tryptophan A - 1]	–	–	–	–	–	511	569	698	590	302
UUAUUAAUCGCAGAUACCAGUCCAGAAUGAAUACUAUAGUGAUGUUAUAAUAAAGGGAAGGACCCUUGGCAGCUGUAAUAUAUUU [AstrosSsTheB#3]	–	–	–	–	–	371	278	401	240	280
CCUGGCGAGGUAACGUGGAUAUCUCGUCGCAAGGAUAUCUGGAAACAGAGAAGGUGCUACAUUACCGGCAGUGAUGUUGCUGACC	–	–	–	–	–	841	336	426	455	274
GCGUUACUGAAAGGAUAUGAUCAACAUAGUGGUCAGUGAUGUUGGCAGGCCUCGUGGCGAGGUAGAUCAGAAGGUUCAUUACGAC [theeternabot_sameState_KL_FMN_B_11]	–	–	–	–	–	415	484	553	502	482
AGCGAUGUUUUCUCUAAGAGUGAUGUUUUUCGAGGACCGGUACGGCCGCCACUCGAAUAAAGAGUGUGGUAGUGAGCUGUUGACU [qqmullin]	–	–	–	–	–	622	256	451	442	278
GUUCGAUUCUGAGUGAUGUUGAGAAUUGAGAAGGAUAUCCAGAAAAGGAGAAGGUCUACGUCAUGCGCCUCGAUUUGCUAGCUGC [theeternabot_exclusion_KL_FMN_A_50]	–	–	–	–	–	835	567	630	515	609
AAUACGAAGCAGUGAUGUUGCUUAUGAGAAGGAGCGCACGAAAGUGCAGGUAGGUCGCUCAGCCAAGUGGACGAAAACGUCCACA [whbob_SS_Arginine_A_sa108]	–	–	–	–	–	96.4	116	98.4	127	90.6
GCAACAUUGGUAGGAUAUCAUUCUGAGUGAUGUUCAGGGUUCAGCUAACGAAAGUUAGUUGUACCAUGAGAAGGGCUAAUGUUGC [Omei KL FMN B SS A v5]	–	–	–	–	–	425	711	967	820	989
CCUAUCUCAUACGAUACCAGUGAUUAACCAGUGAUGUUGGAAUAACCAAGGAAUAUUUUUCACCCUUGGCAGCGUAUGGGAUAGG [Ex Theophylline B K4 26]	–	–	–	–	–	78	38	59.1	61.9	49.6
UUUAUAAAGUCGGCCGCCACUGGAUUUAUAUUUGUUUAAUCUGGAUCAAAGUGAUGUUUUGAGUCCAGGACCGGGACAUUUGUUA [JR_ExcTryptoB_Sub002]	–	–	–	–	–	125	123	124	135	232
UGGAGUUGACGAAAAGUCAACUCCUGAGAUACCAGUGACGAAGGUCACCCUUGGCAGCUCACUGCUAGUGAUGUUGGAAGAUAAA [whbob_SS_Theo_A_w48]	–	–	–	–	–	1390	276	913	2350	792
AGUGAUGUGGGAAGGAGCGGUAUAAGAAUUCAGUGAUGUUGAAGUGUUGCUGUAAUAAAGAGCCAGGUAGGUCGCCUAGAUGUUA [KL-XARG B30]	–	–	–	–	–	811	775	940	1120	562
